Here are results for 2 proteins from article PMC4169324 (The FEBS journal, 2014).

The data set “SEC” concerns the molecule itself. In words: SEC.
The data set “crystal structure” concerns the molecule itself. In words: crystal structure.

B1: BcRsaM protein (product of bcam1869) from B. cenocepacia J2315, native (natural protein)
chain: SNAMTSPLLHPVPGPSPDGYVRLSEGALAALVLDHVASGLDPSLLAELRDNAIDARLAGYTEWHRTAGAGVAYVTVGWDWYLERATGTFVIAGGDVRSNVMAIDAKGADIGMLRTAAALAARLAALDWPAAVASALLGHNDAYHAGPTLQ
B1: in the data set “SEC”, the “stoichiometry N” value is 2.

B2: SeMet-labeled BcRsaM protein from B. cenocepacia J2315 (natural protein)
chain: B1 chain
modifications: selenomethionine (SeMet-labeled; 70 mg/L SeMet in the culture for crystals X4)
In the case of B2, the binding result in the data set “crystal structure” was “binds”.
